This is an account of results in PMC4591687.

This assay addresses PDI C56A-FLAG (human) (UniProt P07237). Put plainly: co-IP.
Sequence of UniProt P07237 (P07237 18-508 C56A): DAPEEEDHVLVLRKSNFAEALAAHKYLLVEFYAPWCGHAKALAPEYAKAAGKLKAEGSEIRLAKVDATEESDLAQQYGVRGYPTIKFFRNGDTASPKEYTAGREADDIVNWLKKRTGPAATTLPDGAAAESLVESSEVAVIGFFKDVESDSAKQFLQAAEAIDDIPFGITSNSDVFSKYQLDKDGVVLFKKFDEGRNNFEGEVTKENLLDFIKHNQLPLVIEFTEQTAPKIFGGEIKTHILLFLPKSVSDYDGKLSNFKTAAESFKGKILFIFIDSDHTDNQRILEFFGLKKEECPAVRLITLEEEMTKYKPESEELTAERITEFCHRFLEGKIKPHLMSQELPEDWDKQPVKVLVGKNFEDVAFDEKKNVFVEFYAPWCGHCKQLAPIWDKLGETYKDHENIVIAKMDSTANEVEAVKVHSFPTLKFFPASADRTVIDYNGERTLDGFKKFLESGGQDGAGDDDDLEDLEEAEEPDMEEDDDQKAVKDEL

Substance “Myc-epitope-tagged human C(A7)Y Akita mutant proinsulin (natural protein)” registered a stoichiometry N (proinsulin per PDI) of 1.
